Measured values: the supplement of paper PMC9876800

System: peptide library, one residue held at a place counted from the S/T acceptor
Experiment: relative phosphorylation of the sub-library (ratio to the mean residue at this position); higher = residue favoured
Procedure, shortened: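 Human or orthologue kinase constructs, purified and recombinant, were incubated under kinase-specific conditions in 384-well plates with biotinylated degenerate peptide sub-libraries. Each sub-library fixed one residue at one position around a central Ser/Thr. Incubations lasted 90 min with peptides at 50 μM and 50 μM ATP spiked with γ-32P-ATP, after which spots on streptavidin membranes were phosphorimaged and quantified by densitometry. Relative sub-library phosphorylation is a ratio to the mean residue at that position.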

DAPK2, construct: Full length, human, sequence (Q9UIK4 whole entry, looked up): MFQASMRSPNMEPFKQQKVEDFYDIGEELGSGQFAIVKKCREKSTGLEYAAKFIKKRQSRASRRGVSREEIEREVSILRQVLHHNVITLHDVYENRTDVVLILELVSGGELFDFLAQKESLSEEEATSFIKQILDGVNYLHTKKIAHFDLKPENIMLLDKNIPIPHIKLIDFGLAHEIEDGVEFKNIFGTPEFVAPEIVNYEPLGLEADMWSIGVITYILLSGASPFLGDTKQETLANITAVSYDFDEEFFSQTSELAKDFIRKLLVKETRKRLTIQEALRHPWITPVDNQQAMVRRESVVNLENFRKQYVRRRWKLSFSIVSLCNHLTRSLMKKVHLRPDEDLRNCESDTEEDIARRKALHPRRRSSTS
VRK1, construct: Full length, human, sequence (Q99986 whole entry, looked up): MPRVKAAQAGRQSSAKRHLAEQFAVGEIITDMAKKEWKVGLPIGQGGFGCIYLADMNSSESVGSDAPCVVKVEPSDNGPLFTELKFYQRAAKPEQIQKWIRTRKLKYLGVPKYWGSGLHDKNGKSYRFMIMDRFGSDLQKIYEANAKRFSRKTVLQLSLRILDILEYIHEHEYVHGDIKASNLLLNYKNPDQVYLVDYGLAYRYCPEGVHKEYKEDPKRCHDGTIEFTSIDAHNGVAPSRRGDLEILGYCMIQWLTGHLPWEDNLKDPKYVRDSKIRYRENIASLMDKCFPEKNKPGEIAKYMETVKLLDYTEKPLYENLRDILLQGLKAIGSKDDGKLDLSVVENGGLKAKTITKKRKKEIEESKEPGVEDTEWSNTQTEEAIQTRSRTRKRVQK

DAPK2, construct: Full length, human (from UniProt Q9UIK4)
relative phosphorylation
Conditions	at +1	at +2	at +3	at +4	at -1	at -2	at -3	at -4	at -5
A fixed	0.947	0.886	0.931	0.893	0.907	1.2	0.902	1.03	1.03
D fixed	1.24	0.825	0.801	0.816	0.878	0.624	0.608	0.797	0.77
E fixed	1.3	0.846	0.813	0.758	0.71	0.591	0.558	0.795	0.703
F fixed	0.985	1.1	0.998	1.22	0.902	0.704	0.778	1.03	1.02
G fixed	1.02	0.895	1.01	0.933	0.983	0.869	0.846	1.02	1.08
H fixed	0.861	0.962	0.951	1.22	0.992	1.08	0.869	0.967	0.926
I fixed	0.909	1.02	1.6	1.02	0.854	0.645	0.697	0.888	0.955
K fixed	0.739	0.891	0.842	0.837	1.22	1.23	1.59	1.12	1.09
L fixed	0.863	1.34	1.27	0.995	1.2	0.725	0.754	0.949	1.06
M fixed	1.04	1.34	0.968	0.882	1.03	0.739	0.758	0.964	0.99
N fixed	1.25	0.913	0.852	0.912	1.25	0.855	0.666	0.97	0.839
P fixed	0.736	1.04	0.983	1.09	1.11	0.775	0.881	1.04	1.08
Q fixed	1.77	0.983	0.878	0.927	0.995	0.838	0.716	0.915	0.869
R fixed	0.838	1.05	1	0.958	1.21	3.71	3.95	1.45	1.47
V fixed	0.91	0.948	1.15	0.973	0.916	0.688	0.674	0.894	0.92
W fixed	0.79	0.943	1	1.39	0.856	0.961	0.898	1.06	0.98
Y fixed	0.797	1.02	0.948	1.18	0.994	0.765	0.861	1.11	1.23
pThr fixed	1.74	1.06	0.929	0.994	0.74	0.649	0.685	0.818	0.831
pTyr fixed	1.15	1.02	1.16	1.04	0.969	0.696	0.682	0.811	0.827

VRK1, construct: Full length, human (from UniProt Q99986)
relative phosphorylation
Conditions	at +1	at +2	at +3	at +4	at -1	at -2	at -3	at -4	at -5
A fixed	0.79	0.924	1.23	0.978	0.758	1.02	1.09	1.03	1.08
D fixed	0.363	0.406	0.525	0.96	0.661	0.802	0.824	0.886	0.865
E fixed	0.548	0.393	0.461	0.739	0.608	0.645	0.81	0.927	0.837
F fixed	0.972	0.746	0.877	1.01	1.04	0.8	0.902	1.02	1.01
G fixed	0.532	0.549	1.7	1.31	0.648	2.31	1.45	1.34	1.34
H fixed	0.951	0.83	1.79	1.03	1.17	1.21	1.15	1.15	1.01
I fixed	0.921	1.63	0.573	0.884	1.31	0.622	0.772	0.859	0.822
K fixed	1.4	1.45	0.815	0.87	0.984	0.759	1.02	0.865	0.88
L fixed	0.642	1.22	0.637	0.985	1.33	0.764	0.745	0.796	0.646
M fixed	1.11	1.67	0.865	1.06	1.06	0.946	0.862	0.916	0.835
N fixed	0.724	0.64	1.65	0.997	0.843	1.38	0.982	1.06	0.919
P fixed	0.305	0.423	0.456	0.688	0.738	1.25	1.28	1.02	1.21
Q fixed	1.4	1.34	0.988	0.952	0.977	1.19	1.03	0.962	1.01
R fixed	2.6	1.2	1.22	1.33	1.03	1.01	1.3	0.978	1.23
V fixed	1.39	2.09	0.723	0.75	1.53	0.616	0.848	0.97	1.02
W fixed	1.15	0.695	1.2	1.32	1.02	0.815	0.931	1.14	1.13
Y fixed	1.19	0.795	1.29	1.14	1.3	0.856	0.999	1.07	1.16
pThr fixed	0.771	0.821	0.698	0.728	0.751	0.781	0.938	0.862	0.958
pTyr fixed	0.752	0.601	0.942	1.37	1.03	0.723	1	0.967	1.05
